The supplement of paper PMC10724198
± gives the standard deviation of the averaged measurements.

Columns and labels:
[1] = test system: Saccharomyces cerevisiae; assay: protein stability index of tFT-peptide fusion (C-terminal peptide) (PSI (0-1 scale)); higher = more stable (slower turnover)
Description: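 MPS profiling in S. cerevisiae of the tFT-X12 degron library: putative degron peptides plus stable controls, 12 aa, fused to the C-terminus of a sfGFP-mCherry timer. Cells are FACS-sorted into 8 mCherry/sfGFP bins and deep-sequenced. PSI runs from 0 (unstable) to 1 (stable). Backgrounds are wild type, das1Δ and doa10Δ at 30 °C, and wild type, das1Δ, cdc34-1 and cdc53-1 at 37 °C; 2-3 technical replicates each.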

[2] = test system: Saccharomyces cerevisiae; assay: as above; settings: genetic background: wild type; temperature: 30 C
[3] = genetic background: cdc34-1, temperature: 37 C
[4] = genetic background: cdc53-1, temperature: 37 C
[5] = genetic background: das1 deletion, temperature: 30 C
[6] = genetic background: das1 deletion, temperature: 37 C
[7] = genetic background: doa10 deletion, temperature: 30 C
[8] = genetic background: wild type, temperature: 30 C
[9] = genetic background: wild type, temperature: 37 C
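Further: PSI is a weighted mean of sequencing reads over stability bins, variants kept only with over 10 reads, mCherry proximal and sfGFP distal, peptide attached via GGGS linker.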

Row | Sequence | protein stability index [1, 3] | protein stability index [1, 4] | protein stability index [1, 5] | protein stability index [1, 6] | protein stability index [1, 7] | protein stability index [1, 8] | protein stability index [1, 9] | protein stability index [2]
1 | FWMLCFLCRLTV | 0.3236 ± 0.0019 | 0.338 ± 0.0098 | 0.306 ± 0.043 | 0.459 ± 0.011 | 0.2213 ± 0.0021 | 0.221 ± 0.026 | 0.361 ± 0.0071 | 0.32 ± 0.03
2 | FWVNFLFVLFIL | 0.257 ± 0.023 | 0.233 ± 0.018 | 0.261 ± 0.036 | 0.4 ± 0.027 | 0.263 ± 0.005 | 0.197 ± 0.022 | 0.307 ± 0.02 | 0.296 ± 0.049
3 | FYACRLWLVSVR | 0.161 ± 0.027 | 0.196 ± 0.011 | 0.191 ± 0.023 | 0.313 ± 0.0039 | 0.158 ± 0.007 | 0.184 ± 0.021 | 0.269 ± 0.0029 | 0.29 ± 0.0033
4 | GACRVSSCVVVC | 0.504 ± 0.011 | 0.548 ± 0.024 | 0.37 ± 0.032 | 0.571 ± 0.0072 | 0.316 ± 0.006 | 0.358 ± 0.014 | 0.526 ± 0.0059 | 0.4477 ± 0.0044
5 | GAFAGDVWRCVV | 0.627 ± 0.02 | 0.755 ± 0.02 | 0.653 ± 0.025 | 0.778 ± 0.014 | 0.154 ± 0.0073 | 0.165 ± 0.026 | 0.2682 ± 0.0021 | 0.297 ± 0.024
6 | GALWVLGVVVGG | 0.461 ± 0.0066 | 0.505 ± 0.0085 | 0.365 ± 0.026 | 0.537 ± 0.0094 | 0.329 ± 0.012 | 0.364 ± 0.027 | 0.511 ± 0.013 | 0.467 ± 0.018
7 | GAVRRWGWVSFV | 0.633 ± 0.052 | 0.7476 ± 0.0049 | 0.6425 ± 0.0039 | 0.744 ± 0.013 | 0.173 ± 0.0068 | 0.193 ± 0.0085 | 0.393 ± 0.004 | 0.331 ± 0.044
8 | GAVVYGICFCTN | 0.624 ± 0.011 | 0.617 ± 0.0081 | 0.388 ± 0.031 | 0.637 ± 0.027 | 0.35 ± 0.0049 | 0.363 ± 0.035 | 0.621 ± 0.0069 | 0.442 ± 0.061
9 | GCLVVVGFFSVF | 0.214 ± 0.049 | 0.416 ± 0.041 | 0.255 ± 0.028 | 0.458 ± 0.028 | 0.2 ± 0.011 | 0.241 ± 0.0093 | 0.409 ± 0.018 | 0.326 ± 0.033
10 | GCVLVFFLRLDL | 0.4328 ± 0.0006 | 0.538 ± 0.067 | 0.354 ± 0.034 | 0.557 ± 0.034 | 0.3466 ± 0.0014 | 0.365 ± 0.0072 | 0.562 ± 0.01 | 0.49 ± 0.072
11 | GFALGSFMLVLR | 0.0226 ± 0.0077 | 0.0469 ± 0.019 | 0.0861 ± 0.012 | 0.0844 ± 0.0018 | 0.596 ± 0.037 | 0.0702 ± 0.012 | 0.0617 ± 0.0078 | 0.0977 ± 0.0089
12 | GFCFVFVFQCFF | 0.339 ± 0.0077 | 0.451 ± 0.034 | 0.288 ± 0.031 | 0.431 ± 0.0031 | 0.267 ± 0.0043 | 0.276 ± 0.039 | 0.402 ± 0.014 | 0.394 ± 0.049
13 | GFFFLFFVSAFI | 0.368 ± 0.021 | 0.4553 ± 0.0027 | 0.327 ± 0.034 | 0.485 ± 0.011 | 0.2992 ± 0.0012 | 0.311 ± 0.064 | 0.445 ± 0.0067 | 0.407 ± 0.026
14 | GFFFYFVLFGLS | 0.34 ± 0.061 | 0.409 ± 0.0011 | 0.29 ± 0.015 | 0.47314 ± 0.00013 | 0.285 ± 0.011 | 0.268 ± 0.018 | 0.446 ± 0.016 | 0.409 ± 0.0059
15 | GFISKLIIKLAA | 0.542 ± 0.0055 | 0.566 ± 0.032 | 0.43 ± 0.025 | 0.5511 ± 0.0043 | 0.269 ± 0.0091 | 0.319 ± 0.016 | 0.462 ± 0.026 | 0.435 ± 0.0059
16 | GFVLMLLVRFEL | 0.299 ± 0.037 | 0.416 ± 0.0054 | 0.309 ± 0.031 | 0.474 ± 0.015 | 0.328 ± 0.011 | 0.294 ± 0.046 | 0.465 ± 0.035 | 0.419 ± 0.034
17 | GGFRVLLWCVVW | 0.19 ± 0.046 | 0.3237 ± 0.0018 | 0.214 ± 0.041 | 0.399 ± 0.0044 | 0.184 ± 0.0074 | 0.208 ± 0.03 | 0.35 ± 0.028 | 0.28 ± 0.016
18 | GGGEGVVWVRLG | 0.537 ± 0.054 | 0.72 ± 0.011 | 0.637 ± 0.0046 | 0.737 ± 0.009 | 0.116 ± 0.012 | 0.131 ± 0.0021 | 0.19 ± 0.01 | 0.272 ± 0.018
19 | GGGWCEMLIVVG | 0.506 ± 0.018 | 0.512 ± 0.026 | 0.358 ± 0.029 | 0.5495 ± 0.0039 | 0.324 ± 0.013 | 0.367 ± 0.03 | 0.542 ± 0.017 | 0.441 ± 0.018
